Test results as given in the supplement of paper PMC7877785.
± gives the uncertainty stated by the source.

Experiment: self-splicing fitness, log relative to wild type (ln ratio); higher = more splicing; Tetrahymena group I intron in knt gene, E. coli kanamycin selection, DiMSum; sequences stand for … in CUCUCU…GGAGGGAAAAGUUAUCAGGCAUGCACCUGGUAGCUAGUCUUUAAACCAAUAGAUUGCAUCGGUUUAAAAGGCAAGACCGUCAAAUUGCGGGAAAGGGGUCAACAGCCGUUCAGUACCAAGUCUCAGGGGAAACUUUGAGAUGGCCUUGCAAAGGGUAUGGUAAUAAGCUGACGGACAUGGUCCUAACCACGCAGCCAAGUCCUAAGUCAACAGAUCUUCUGUUGAUAUGGAUGCAGUUCACAGACUAAAUGUCGGUCGGGGAAGAUGUAUUCUUCUCAUAAGAUAUAGUCGGACCUCUCCUUAAUGGGAGCUAGCGGAUGAAGUGAUGCAACACUGGAGCCGCUGGGAACUAAUUUGUAUGCGAAAGUAUAUUGAUUAGUUUUGGAGUACUCGUGGUCG
Outline: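 Fitness was computed with DiMSum as the error-weighted combination of replicate fold changes, kanamycin versus none, each normalised to wild type. The library randomised all eight intron nucleotides of the P1ex region, with the intron placed in the knt kanamycin-resistance gene on pET-22b(+) in E. coli BL21(DE3). Six replicate transformations were grown overnight at 37°C or 30°C on LB agar with or without 25 μg/mL kanamycin, plus 100 μg/mL carbenicillin, 50 μM IPTG and 0.2% rhamnose. Pooled colonies were amplicon-sequenced on an Illumina HiSeq 2500.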

Row | Sequence | self-splicing fitness (ln) (30 °C) | self-splicing fitness (ln) (37 °C)
1 | AACUAGCAAUAUUACGAUCC | 0.0588 ± 0.16 | 0.358 ± 0.19
2 | AACUAGCAAUAUUACGAUUG | -2.97 ± 0.12 | -1.23 ± 0.12
3 | AACUAGCAAUAUUACGCAGC | -3.32 ± 0.25 | -2.98 ± 0.43
4 | AACUAGCAAUAUUACGCCAC | – | -1.79 ± 0.36
5 | AACUAGCAAUAUUACGCGUG | -1.53 ± 0.08 | -0.485 ± 0.09
6 | AACUAGCAAUAUUACGCGUU | -3.51 ± 0.19 | -2.48 ± 0.29
7 | AACUAGCAAUAUUACGCUUU | -2.44 ± 0.097 | -1.71 ± 0.12
8 | AACUAGCAAUAUUACGGAGG | -3.08 ± 0.2 | -1.99 ± 0.22
9 | AACUAGCAAUAUUACGGCUG | -1.02 ± 0.098 | -0.0943 ± 0.15
10 | AACUAGCAAUAUUACGGGAA | -1.5 ± 0.074 | -1.13 ± 0.084
11 | AACUAGCAAUAUUACGGGAC | -3.22 ± 0.3 | -1.08 ± 0.17
12 | AACUAGCAAUAUUACGGGCG | -0.139 ± 0.081 | -0.0101 ± 0.11
13 | AACUAGCAAUAUUACGGGGG | -2.73 ± 0.2 | -1.53 ± 0.22
14 | AACUAGCAAUAUUACGGGUA | -0.761 ± 0.072 | -0.0817 ± 0.07
15 | AACUAGCAAUAUUACGUGAG | -1.28 ± 0.075 | -1.03 ± 0.1
16 | AACUAGCAAUAUUACGUGCC | -1.39 ± 0.12 | -0.755 ± 0.13
17 | AACUAGCAAUAUUACGUGUC | -4.26 ± 0.19 | -1.25 ± 0.1
18 | AACUAGCAAUAUUACGUUCC | -2.63 ± 0.22 | -1.93 ± 0.24
19 | AACUAGCAAUAUUACGUUUU | -3.52 ± 0.097 | -1.32 ± 0.075

Row | Sequence | self-splicing fitness (ln) (30 °C) | self-splicing fitness (ln) (37 °C)
20 | AAGAAGCAAUAUUACGAAAA | -1.8 ± 0.17 | -1.57 ± 0.18
21 | AAGAAGCAAUAUUACGAAGC | -3.02 ± 0.18 | -2.43 ± 0.28
22 | AAGAAGCAAUAUUACGAUCA | -0.455 ± 0.08 | -0.229 ± 0.099
23 | AAGAAGCAAUAUUACGAUGU | -1.29 ± 0.086 | -1.01 ± 0.1
24 | AAGAAGCAAUAUUACGAUUC | -1.49 ± 0.1 | -0.941 ± 0.14
25 | AAGAAGCAAUAUUACGCCGG | -2.02 ± 0.24 | -1.81 ± 0.18
26 | AAGAAGCAAUAUUACGCCUG | -0.11 ± 0.11 | -0.509 ± 0.14
27 | AAGAAGCAAUAUUACGCGAU | -3.59 ± 0.41 | -2 ± 0.42
28 | AAGAAGCAAUAUUACGCGCG | -0.562 ± 0.12 | -0.0457 ± 0.15
29 | AAGAAGCAAUAUUACGCGUU | -2.74 ± 0.11 | -1.32 ± 0.11
30 | AAGAAGCAAUAUUACGCUUG | -1.23 ± 0.11 | -0.951 ± 0.14
31 | AAGAAGCAAUAUUACGGAUG | -1.8 ± 0.076 | -2.03 ± 0.12
32 | AAGAAGCAAUAUUACGGCAG | -1.35 ± 0.099 | -0.774 ± 0.12
33 | AAGAAGCAAUAUUACGGGCU | -1.35 ± 0.13 | -2.09 ± 0.2
34 | AAGAAGCAAUAUUACGGUGC | -3.77 ± 0.2 | -1.68 ± 0.17
35 | AAGAAGCAAUAUUACGGUUC | -2.86 ± 0.14 | -0.743 ± 0.15
36 | AAGAAGCAAUAUUACGUAAA | -2.27 ± 0.1 | -1.14 ± 0.14
37 | AAGAAGCAAUAUUACGUCCC | -1.06 ± 0.16 | 0.89 ± 0.21
